Source: article doi:10.1101/620195, “Modulation of DNA polymerase IV activity by UmuD and RecA* observed by single-molecule time-lapse microscopy” (bioRxiv, 2019)

Target: T1, E. coli RecA(E38K) protein (E. coli, UniProt P0A7G6 1-353, E38K)
T1 construct: RecA recombinase, E. coli, with the E38K mutation (allele recA730); In the assay it stood as a filament assembled with ATPγS on a biotinylated 60-mer dsDNA held on a streptavidin chip; also called recA730; RecA(E38K)-ATPγS filaments
T1 sequence (looked up): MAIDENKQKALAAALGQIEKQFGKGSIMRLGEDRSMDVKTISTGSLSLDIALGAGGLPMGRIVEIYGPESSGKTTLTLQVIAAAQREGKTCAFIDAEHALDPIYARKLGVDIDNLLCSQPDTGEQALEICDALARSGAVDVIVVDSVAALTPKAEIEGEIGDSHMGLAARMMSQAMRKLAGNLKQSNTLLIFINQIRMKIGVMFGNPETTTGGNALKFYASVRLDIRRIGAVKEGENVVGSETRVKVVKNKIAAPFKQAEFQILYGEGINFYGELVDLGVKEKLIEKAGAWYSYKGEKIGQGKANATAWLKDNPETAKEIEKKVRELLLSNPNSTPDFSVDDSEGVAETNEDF
Experiment: SPR; BIAcore T200, SA chip; RecA(E38K) filaments assembled on immobilised biotinylated 60-mer dsDNA; 0.65 uM pol IV injected for 220 s at 5 uL/min; 20 °C; 20 mM Tris-HCl pH 8.0, 10 mM KCl, 10 mM MgCl2, 0.005% surfactant P20, 0.5 mM dithiothreitol, 0.5 mM ATPγS
Conditions: both partners purified

binding result: binds
B1: DNA polymerase IV (pol IV) (enzyme, E. coli, UniProt Q47155 1-351, looked up)
chain: MRKIIHVDMDCFFAAVEMRDNPALRDIPIAIGGSRERRGVISTANYPARKFGVRSAMPTGMALKLCPHLTLLPGRFDAYKEASNHIREIFSRYTSRIEPLSLDEAYLDVTDSVHCHGSATLIAQEIRQTIFNELQLTASAGVAPVKFLAKIASDMNKPNGQFVITPAEVPAFLQTLPLAKIPGVGKVSAAKLEAMGLRTCGDVQKCDLVMLLKRFGKFGRILWERSQGIDERDVNSERLRKSVGVERTMAEDIHHWSECEAIIERLYPELERRLAKVKPDLLIARQGVKLKFDDFQQTTQEHVWPRLNKADLIATARKTWDERRGGRGVRLVGLHVTLLDPQMERQLVLGL
notes: DNA polymerase IV, product of dinB, E. coli; Native pol IV, no tag, > 99% pure; also called DinB
